{"source": "patent US6383479B1", "about": "“Neutrophil-activating factor” (Novartis AG, priority 1987, dated 2002)", "key": {"[1]": {"test_system": "New Zealand albino rabbits", "test": "neutrophil accumulation and plasma leakage in rabbit skin after intradermal injection", "type": "in vivo", "description": "Inflammatory responses are examined in the skin of conscious 2.0 to 2.5 kg New Zealand albino rabbits. Erythrocytes in blood from donor rabbits are sedimented with hydroxyethyl cellulose (Polysciences, Warrington, Pa.) and neutrophils in the resultant leucocyte-rich plasma are purified (>94% neutrophils) by density gradient centrifugation on Percoll (Pharmacia, Uppsala, Sweden). Cells are resuspended in Ca^2+ and Mg^2+—free Tyrode's solution containing 10% platelet poor plasma to a concentration of 10^6 leukocytes/ml and labeled for 15 min at room temperature with 40 μCi ^111indium-oxine (Amersham) per 10^6 cells. The labeled cells are washed by centrifugation through 10% platelet-poor plasma and approximately 10^6 cells per recipient are mixed with 10 μCi ^125iodine-labeled human serum albumin (Amersham) and injected intravenously through the lateral ear vein of rabbits with inflammatory lesions under study. Intradermal injections of inflammatory agents are then made and animals are killed 2 h later in studies with actinomycin D and polymyxin B, and 4 h later in dose-response experiments. Midway through the period that radiolabeled cells are in circulation, a blood sample is collected and the specific activities of neutrophils and plasma in blood are determined. Radioactivity in inflammatory lesions at the end of each experiment are determined in a multichannel gamma counter, the activity in control skin sites is subtracted and the absolute number of neutrophils and volume of plasma accumulating in inflammatory lesions are calculated from the specific activities. Neutrophil numbers in inflammatory lesions are standardised between animals by expressing the results as cell number per 10^6 neutrophils circulating per ml peripheral blood, according to the method of Cybulsky et al., Am. J. Pathol. 124 [1986] 367.\nRecombinant NAF obtained as described under Example 19 is dissolved at 400 μg/ml in minimal essential medium (50 mM) plus 0.45 M NaCl (pH 6.5). Endotoxin (E. coli serotype 055:B5, Sigma, St. Louis, Mo.) is dissolved in pyrogen-free normal saline. fMLP is dissolved in dimethyl sulphoxide at 10^−2 M and diluted to working concentrations in PFS. Polymyxin B and actinomycin D are dissolved in 1 ml ethanol and diluted 20 fold by mixing with NAF, endotoxin or fMLP in PFS. In studies on inhibition of inflammatory responses 40 μg polymyxin B and 10^−7 moles actinomycin D are injected per skin site with […] endotoxin. In all experiments 0.2 ml of inflammatory agents are injected intradermally per site through 26 gauge needles, with 5 replicates of each treatment in each animal."}, "[2]": {"test": "exposure to fresh human serum, then activity (superoxide production)", "type": "in vitro ADME", "settings": "15 minutes with fresh human serum", "protocol": "C5A and NAF are incubated for 15 minutes with fresh human serum or with PBS and the activity of the preparations is determined (superoxide production).\nSince C5a and NAF have similar effects on neutrophils, further experiments must be performed to discriminate entirely between the two. Samples of NAF and C5a are exposed to fresh human serum."}, "[3]": {"test_system": "mouse, rat and guinea pig", "test": "preliminary tests of NAF activity in mouse, rat and guinea pig", "description": "The biological properties of NAF are species-specific. Activity in the rabbit most closely mirrors activity in humans."}, "[4]": {"test": "resistance of NAF activity to heat, pH, denaturing agents and proteases", "type": "physicochemical", "protocol": "Partially purified NAF obtained upon phosphocellulose chromatography (Example 4) is used in these experiments. Following phosphocellulose chromatography, fractions with the highest NAF activity are dialysed overnight at 4° against PBS using a membrane with a molecular weight cut-off of 1000 daltons. The preparation obtained is then subjected to the following treatments: a) incubation at 37° with and without trypsin, chymotrypsin or proteinase K (100 μg/ml) followed by the addition of an excess of BSA (2 mg/ml) to stop NAF proteolysis; b) heating to 56°, 80° or 95° (as compared to 22° for control); c) exposure to pH 2 or 10 (at 22°) followed by adjustment to pH 7.4 (as compared to pH 7.4 for control); d) exposure to 2 M lithium chloride, 6 M guanidinium chloride, 1% 2-mercaptoethanol or 0.5% sodium dodecyl sulfate (SDS) for 3 h at 22°, followed by dialysis for 24 h at 4° against PBS. When additions are made, samples without NAF are handled in the same way and tested for possible influence on the NAF assay."}, "thymocyte": {"test_system": "thymocyte", "test": "thymocyte proliferation as a measure of IL-1 activity", "type": "cell-based", "settings": "phosphocellulose fractions", "protocol": "Mononuclear cells obtained from donor blood buffy coats as described in Example 1 are cultured in MEM-PPL for 48 h in the presence of 100 ng/ml LPS in stirred culture bottles (1.5 liter, 5×10^6 cells/ml). The culture supernatants are then collected, centrifuged at 20000 rpm for 20 min. at 4° to remove particulate material, and loaded onto a 10 ml phosphocellulose column (Whatman P11, 1,4×6 cm) equilibrated with 20 mM potassium phosphate buffer, pH 7.2 containing 20 mM NaCl and 5% glycerol. The column is washed with 30 ml of the above buffer and then eluted with 90 ml of a linear NaCl concentration gradient (0.02 M to 1.5 M) in the same buffer. Fractions of 2 ml are collected in 0.1% polyethylene glycol and tested for NAF and IL-1 activity. Absorbance at 280 nm is monitored continuously as a measure of protein.\nMost of the protein as well as the IL-1 activity are recovered in the flow-through volume. Elution with a linear NaCl gradient yields some IL-1 activity at low ionic strength followed by a peak of elastase-releasing activity corresponding to NAF, which starts to elute at 0.5 M and reaches its maximum at 0.8 M NaCl. The peak is symmetric and is preceded by a small shoulder."}, "Rabbit neutrophils": {"test_system": "Rabbit neutrophils", "test": "NAF-induced exocytosis in rabbit neutrophils (N-acetyl-β-glucosaminidase release)", "type": "cell-based", "settings": "15 min, cytochalasin B pretreated, purified natural NAF", "protocol": "Rabbit neutrophils are isolated from peripheral blood (obtained from the ear vein or artery) by dextran sedimentation followed by Hypaque-Ficoll density gradient centrifugation. Purified natural NAF is used.\nExocytosis conditions: 0.6×10^6 cells (in a total volume of 0.15 ml) pretreated with cytochalasin B for 5 min at 37° are stimulated with NAF (0.1-100 nM) or fMLP (100 nM) for 15 min. N-acetyl-β-glucosaminidase, an azurophil granule marker, is determined in the cell-free medium."}, "[5]": {"settings": "recombinant NAF intradermal, 10^−11 to 10^−9 moles per site, 4 h"}}}
{"substance": "neutrophil-activating factor [NAF]", "values": [{"measurement": "molar potency relative to C5a and LTB", "setting": "[1]; in vivo, rabbit skin", "value": "comparable"}, {"measurement": "neutrophil accumulation in skin sites", "setting": "[1]; [5]", "value": "dose-dependent increase"}, {"measurement": "plasma leakage into skin sites", "setting": "[1]; [5]", "value": "dose-dependent increase"}, {"measurement": "effect of serum treatment on activity", "setting": "[2]", "value": "does not affect"}, {"measurement": "activity in the mouse, rat and guinea pig", "setting": "[3]", "value": "not shown any clear activity"}, {"measurement": "Relative activity", "setting": "[4]; 2-mercaptoethanol 1.0%, 22°, 3 h", "value": 30}, {"measurement": "Relative activity", "setting": "[4]; SDS 0.5%, 22°, 3 h", "value": 100}, {"measurement": "Relative activity", "setting": "[4]; Temperature 22°, 3 h (control)", "value": 100}, {"measurement": "Relative activity", "setting": "[4]; Temperature 56°, 1 h", "value": 82}, {"measurement": "Relative activity", "setting": "[4]; Temperature 80°, 15 min", "value": 80}, {"measurement": "Relative activity", "setting": "[4]; Temperature 95°, 5 min", "value": 66}, {"measurement": "Relative activity", "setting": "[4]; guanidinium chloride 6M, 22°, 3 h", "value": 68}, {"measurement": "Relative activity", "setting": "[4]; lithium chloride 2M, 22°, 3 h", "value": 52}, {"measurement": "Relative activity", "setting": "[4]; pH 2.0, 22°, 3 h", "value": 76}, {"measurement": "Relative activity", "setting": "[4]; pH 10.0, 22°, 3 h", "value": 90}, {"measurement": "Relative activity", "setting": "[4]; proteinase K 100 μg/ml, 37°, 12 h", "value": 0}, {"measurement": "Relative activity", "setting": "[4]; trypsin 100 μg/ml, 37°, 4 h", "value": 100}, {"measurement": "Relative activity", "setting": "[4]; trypsin 100 μg/ml, 37°, 12 h", "value": 8}, {"measurement": "Relative activity", "setting": "[4]; α-chymotrypsin 100 μg/ml, 37°, 4 h", "value": 80}, {"measurement": "Relative activity", "setting": "[4]; α-chymotrypsin 100 μg/ml, 37°, 12 h", "value": 1}, {"measurement": "thymocyte proliferation-inducing activity (IL-1 activity)", "setting": "thymocyte", "value": "no thymocyte proliferation-inducing activity"}, {"measurement": "N-acetyl-β-glucosaminidase", "setting": "Rabbit neutrophils; stimulus 0.1 nM", "value": 53, "unit": "pmol/min"}, {"measurement": "N-acetyl-β-glucosaminidase", "setting": "Rabbit neutrophils; stimulus 1.0 nM", "value": 99, "unit": "pmol/min"}, {"measurement": "N-acetyl-β-glucosaminidase", "setting": "Rabbit neutrophils; stimulus 10.0 nM", "value": 139, "unit": "pmol/min"}, {"measurement": "N-acetyl-β-glucosaminidase", "setting": "Rabbit neutrophils; stimulus 100.0 nM", "value": 157, "unit": "pmol/min"}]}
